The target in experiment [1] is 77E203A205G thrombin (lysine 77 to glutamic acid, glycine 203 to alanine, serine 205 to glycine in B chain) (human, UniProt P00734 315-363; P00734 364-622). Put plainly: IAsys biosensor, FAST FIT program; derivative immobilized. Here is the method: (§1) Subsequently, 0.2 ml of 1 M ethanol amine (pH 8) was added thereto to perform a blocking treatment.
The target of experiment [2] is 203A205G thrombin (glycine at position 203 in B chain substituted by alanine, serine at position 205 … (human, UniProt P00734 315-363; P00734 364-622). Described as above. The procedure: as §1

B1: fibrinogen (other)
chain 1: ADSGEGDFLAEGGGVRGPRVVERHQSACKDSDWPFCSDEDWNYKCPSGCRMKGLIDEVNQDFTNRINKLKNSLFEYQKNNKDSHSLTTNIMEILRGDFSSANNRDNTYNRVSEDLRSRIEVLKRKVIEKVQHIQLLQKNVRAQLVDMKRLEVDIDIKIRSCRGSCSRALAREVDLKDYEDQQKQLEQVIAKDLLPSRDRQHLPLIKMKPVPDLVPGNFKSQLQKVPPEWKALTDMPQMRMELERPGGNEITRGGSTSYGTGSETESPRNPSSAGSWNSGSSGPGSTGNRNPGSSGTGGTATWKPGSSGPGSTGSWNSGSSGTGSTGNQNPGSPRPGSTGTWNPGSSERGSAGHWTSESSVSGSTGQWHSESGSFRPDSPGSGNARPNNPDWGTFEEVSGNVSPGTRREYHTEKLVTSKGDKELRTGKEKVTSGSTTTTRRSCSKTVTKTVIGPDGHKEVTKEVVTSEDGSDCPEAMDLGTLSGIGTLDGFRHRHPDEAAFFDTASTGKTFPGFFSPMLGEFVSETESRGSESGIFTNTKESSSHHPGIAEFPSRGKSSSYSKQFTSSTSYNRGDSTFESKSYKMADEAGSEADHEGTHSTKRGHAKSRPV
chain 2: QGVNDNEEGFFSARGHRPLDKKREEAPSLRPAPPPISGGGYRARPAKAAATQKKVERKAPDAGGCLHADPDLGVLCPTGCQLQEALLQQERPIRNSVDELNNNVEAVSQTSSSSFQYMYLLKDLWQKRQKQVKDNENVVNEYSSELEKHQLYIDETVNSNIPTNLRVLRSILENLRSKIQKLESDVSAQMEYCRTPCTVSCNIPVVSGKECEEIIRKGGETSEMYLIQPDSSVKPYRVYCDMNTENGGWTVIQNRQDGSVDFGRKWDPYKQGFGNVATNTDGKNYCGLPGEYWLGNDKISQLTRMGPTELLIEMEDWKGDKVKAHYGGFTVQNEANKYQISVNKYRGTAGNALMDGASQLMGENRTMTIHNGMFFSTYDRDNDGWLTSDPRKQCSKEDGGGWWYNRCHAANPNGRYYWGGQYTWDMAKHGTDDGVVWMNWKGSWYSMRKMSMKIRPFFPQQ
chain 3: YVATRDNCCILDERFGSYCPTTCGIADFLSTYQTKVDKDLQSLEDILHQVENKTSEVKQLIKAIQLTYNPDESSKPNMIDAATLKSRKMLEEIMKYEASILTHDSSIRYLQEIYNSNNQKIVNLKEKVAQLEAQCQEPCKDTVQIHDITGKDCQDIANKGAKQSGLYFIKPLKANQQFLVYCEIDGSGNGWTVFQKRLDGSVDFKKNWIQYKEGFGHLSPTGTTEFWLGNEKIHLISTQSAIPYALRVELEDWNGRTSTADYAMFKVGPEADKYRLTYAYFAGGDAGDAFDGFDFGDDPSDKFFTSHNGMQFSTWDNDNDKFEGNCAEQDGSGWWMNKCHAGHLNGVYYQGGTYSKASTPNGYDNGIIWATWKTRWYSMKKTTMKIIPFNRLTIGEGQQHHLGGAKQAGDV
notes: also called Fbgn
B1: the dissociation constant Kd – broadly, the concentration at which binding is half-saturated – in experiment [1] was 190 nM; in experiment [2], 10.8 nM.

(Values after patent US20070282095A1 (published 2007).)
